The record followed here is paper PMC12441119 (2025).

Positions count from the first letter of the chain named.

Assay [1] concerns the target T1, STK4 (residues 1–326) K59R (human, UniProt Q13043 1-326, K59R).
T1 sequence: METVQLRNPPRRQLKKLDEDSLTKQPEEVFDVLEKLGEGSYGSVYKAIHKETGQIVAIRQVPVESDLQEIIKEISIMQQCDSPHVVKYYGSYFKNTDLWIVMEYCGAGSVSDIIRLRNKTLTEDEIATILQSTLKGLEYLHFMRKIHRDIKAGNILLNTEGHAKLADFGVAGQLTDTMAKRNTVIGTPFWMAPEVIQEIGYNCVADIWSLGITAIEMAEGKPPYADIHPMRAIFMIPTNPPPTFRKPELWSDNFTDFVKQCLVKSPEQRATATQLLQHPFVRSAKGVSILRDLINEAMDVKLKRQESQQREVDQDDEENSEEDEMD
Description: ITC. For orientation: ITC needs no label: the signal is the heat of the interaction.

For assay [2], the target named is T2, STK4 (residues 11–326) K59R (human, UniProt Q13043 11-326, K59R).
T2 sequence: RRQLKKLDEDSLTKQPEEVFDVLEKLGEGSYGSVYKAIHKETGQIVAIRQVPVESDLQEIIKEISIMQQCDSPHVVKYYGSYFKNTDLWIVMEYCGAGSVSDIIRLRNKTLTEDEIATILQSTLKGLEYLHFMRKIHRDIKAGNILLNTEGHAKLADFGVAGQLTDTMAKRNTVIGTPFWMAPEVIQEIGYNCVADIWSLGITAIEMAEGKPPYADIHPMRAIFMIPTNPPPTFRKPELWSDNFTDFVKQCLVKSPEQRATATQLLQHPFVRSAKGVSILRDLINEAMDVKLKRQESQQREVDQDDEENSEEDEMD
Description: ITC.

Assay [3] addresses T3, STK4 (residues 1–326) K59R N239A (human, UniProt Q13043 1-326, K59R | N239A).
T3 sequence: T1 sequence with N239A
Description: ITC; printed as R239A.

B1: HOIP (residues 697–1072) (domain or fragment)
chain: QECAVCGWALPHNRMQALTSCECTICPDCFRQHFTIALKEKHITDMVCPACGRPDLTDDTQLLSYFSTLDIQLRESLEPDAYALFHKKLTEGVLMRDPKFLWCAQCSFGFIYEREQLEATCPQCHQTFCVRCKRQWEEQHRGRSCEDFQNWKRMNDPEYQAQGLAMYLQENGIDCPKCKFSYALARGGCMHFHCTQCRHQFCSGCYNAFYAKNKCPEPNCRVKKSLHGHHPRDCLFYLRDWTALRLQKLLQDNNVMFNTEPPAGARAVPGGGCRVIEQKEVPNGLRDEACGKETPAGYAGLCQAHYKEYLVSLINAHSLDPATLYEVEELETATERYLHVRPQPLAGEDPPAYQARLLQKLTEEVPLGQSIPRRRK
As a reminder, the Kd is the free concentration of one partner at which half of the binding sites on the other are occupied at equilibrium, for simple one-to-one binding. Take B1: the dissociation constant (Kd) in assay [1] was determined as 36.4 µM; in assay [2], 34.7 µM.

B2: HOIP (residues 854–1072) (domain or fragment)
chain: EYQAQGLAMYLQENGIDCPKCKFSYALARGGCMHFHCTQCRHQFCSGCYNAFYAKNKCPEPNCRVKKSLHGHHPRDCLFYLRDWTALRLQKLLQDNNVMFNTEPPAGARAVPGGGCRVIEQKEVPNGLRDEACGKETPAGYAGLCQAHYKEYLVSLINAHSLDPATLYEVEELETATERYLHVRPQPLAGEDPPAYQARLLQKLTEEVPLGQSIPRRRK
B2 yielded a Kd in assay [3] of 149 µM.
